Experimental data taken from US20170035898A1, “CONJUGATES OF AN IL-15 MOIETY AND A POLYMER” (Nektar Therapeutics, priority 2014, published 2017).

Experiments:
IL-15-Rα-Fc [1] = assay: SPR (Biacore), IL-15Rα-Fc captured by anti-human Fc antibody, test article injected
IL-15-Rα-Fc [2] = assay: SPR (Biacore), IL-15Rα-Fc captured by anti-human Fc antibody, Kd from kd/ka
B16F10 melanoma tumor = assay: Antitumor activity of rIL-15 conjugates in B16F10 melanoma tumor (Example 9); assay type: in vivo, C57BL/6 mice; details: conjugates 0.6 mg/kg i.v. once, IL-15 0.3 mg/kg i.p. every other day x6
Experimental: To test and compare the efficacy of rIL-15 conjugates in an in vivo model, syngenic tumors were induced in 6-8 week old female C57BL/6 mice by subcutaneously injecting, into post ventral abdominal region, mouse metastatic B16F10 melanoma cells at a density of 1×10^6 cells mL-1 in 100 μL volume of non-serum containing cell culture medium. The mice developed tumors of approximately 100 mm^3 by the end of 6-8 days. The mice were divided into six groups, each group consisting of 10 animals.
Groups A through D correspond to rIL-15 conjugates that were administered at 0.6 mg/kg body weight by intravenous injection to the mice only once while Group E represents unconjugated IL-15 administered every other day via intraperitoneal injection. Group F represents a vehicle control, wherein phosphate buffered saline was administered by intravenous injection.
Following dose administration, the mice were measured for changes in body weight and for the growth of subcutaneous metastatic melanoma tumors by digital calipers three times a week. Daily clinical signs were also monitored. The study end point was reached when the mean volume of the tumors reach 1500 mm^3 (i.e., a mean tumor volume of 1500 mm^3).

IL-15Rα = assay: Receptor affinities for IL-15Rα by Surface Plasmon Resonance (Example 10); assay type: binding; details: SPR
Experimental: The affinities of IL-15 and rIL-15 conjugates were measured using Surface Plasmon Resonance (“SPR”). Briefly, the surface of a Biacore CMS sensor chip was activated using a 1:1 mixture of NHS:EDC to generate active NHS esters. Goat anti-human Fc antibody was covalently attached to the surface by injecting it for five minutes in 10 mM sodium acetate (pH 4). There were approximately 8000 RU of antibodies bound to the surface. Any remaining NHS ester was then quenched with ethanolamine
At the initiation of each injection cycle, IL-15-Rα-Fc was captured on a sensor chip channel by a five minute injection step in PBSP. Typically, 150-200 RU of receptors were bound on the surface.
rIL-15 conjugates were diluted to 10 μM in PBS (containing 0.05% Tween 20 and 0.1 mg/ml BSA). A series of 3-fold dilutions were made and injected onto a sensor chip which was coated with IL-15Rα. The affinities were measured by determining the ka and kd rates separately, and the ratio between kd and ka was used to calculate the Kd values.

[3] = system: STAT5 phosphorylation in CTLL-2 cells; assay: Measurement of IL-15 activity of rIL-15 based on STAT5 phosphorylation in CTLL-2 cells (Example 1); assay type: cell-based
Text: For any given peptide, protein moiety or conjugate, it is possible to determine whether that peptide, protein moiety or conjugate has IL-15 activity. Various methods for determining in vitro IL-15 activity are described in the art. An exemplary approach is based on a pSTAT assay. Briefly, if an IL-15-dependent CTLL-2 cell is exposed to a test article having IL-15 activity, initiation of a signaling cascade results that includes the phosphorylation of STAT5 at tyrosine residue 694 (Tyr694) that can be quantitatively measured.
One day prior to assay, CTLL-2 cells were split into fresh growth medium (RPMI 1640+10% FBS+10% T-STIM+2 mM L-glut+1 mM Na-pyruvate). On the day of assay, cells were pre-incubated in assay medium (RPMI 1640+1% FBS+2 mM L-glut+1 mM Na-pyruvate) for at least 4 hours and then placed in a 96-well plate at 50,000 cells/well in the assay medium.
Dilutions of the test article were prepared in an appropriate buffer immediately prior to assay and each dilution of test article was incubated in a separate well of the CTLL-2 cells. The phosphorylation of STAT5 was then determined using the MSD Phospho (Tyr694)/Total STATa,b Whole Cell Lysate Kit (catalog #K15163D, […], LLC, Gaithersburg, Md.).

[4] = system: STAT5 phosphorylation in CTLL-2 cells; assay: Measurement of IL-15 activity of rIL-15 conjugates based on STAT5 phosphorylation in CTLL-2 cells (Example 8); assay type: cell-based; details: 10 minute treatment
Experimental: One day prior to the assay, CTLL-2 cells were split into fresh growth medium [RPMI 1640 supplemented with 10% FBS, 10% T-cell culture supplement (catalog #354115, Corning, Inc., Tewksbury, Mass.), 2 mM L-glutamate, and 1 mM sodium pyruvate]. On the day of assay, cells were pre-incubated in assay medium (RPMI 1640 supplemented with 1% FBS, 2 mM L-glutamate, and 1 mM sodium pyruvate) for at least four hours, and then plated in assay medium in a 96-well plate at 50,000 cells/well. Dilutions of the test article were prepared in an appropriate buffer immediately prior to assay. Stimulation of CTLL-2 cells was initiated by the transfer of 25× test article solutions to triplicate wells containing CTLL-2 cells. Plates were incubated at 37° C., 5% CO2 for 10 minutes, and the reaction was stopped by cell lysis. Detection of phospho-STAT5 and total STAT5 protein levels in cell lysates was performed using the MSD Phospho (Tyr694)/Total STATa,b Whole Cell Lysate Kit (catalog #K15163D, Meso Scale Diagnostics, LLC, Gaithersburg, Md.). […] Conjugates prepared in accordance with Examples 2, 3 and 5 were tested, with the results following a 10 minute treatment provided in Table 4.

[5] = days from the day of implantation
[6] = IL-15-Rα-Fc captured on sensor chip

Row | koff (IL-15-Rα-Fc [1]) | kon (IL-15-Rα-Fc [1]) | Kd (IL-15-Rα-Fc [2]) | Substance | further results
1 | 0.0039 s⁻¹ | 420000 M⁻¹ s⁻¹ | 9.4 nM | Fraction containing tri-PEG-rIL-15 from Example 5 ([mPEG2-ru-40K]-[rIL-15] conjugates) (from UniProt P40933 49-162) (ligand) | 
2 | 0.00088 s⁻¹ | 460000 M⁻¹ s⁻¹ | 1.9 nM | Fraction containing di- and tri-PEG-rIL-15 from Example 5 ([mPEG2-ru-40K]-[rIL-15] conjugates) (from UniProt P40933 49-162) (ligand) | 
3 |  |  |  | IL-15: recombinant human IL-15 obtained from PeproTech (catalog #200-15); unconjugated control | Tumor Volume Doubling Time (500 mm^3) (B16F10 melanoma tumor): 2.9 days; Tumor Volume Doubling Time (1000 mm^3) (B16F10 melanoma tumor): 5.6 days; Time to reach 250 mm^3 (B16F10 melanoma tumor; [5]): 10.6 days; Time to reach 500 mm^3 (B16F10 melanoma tumor; [5]): 13.5 days; Time to reach 1000 mm^3 (B16F10 melanoma tumor; [5]): 19.1 days; Tumor growth delay for 250 mm^3 (B16F10 melanoma tumor; versus vehicle control Group F): 0.6 days; Tumor growth delay for 500 mm^3 (B16F10 melanoma tumor; versus vehicle control Group F): 0.9 days; Tumor growth delay for 1000 mm^3 (B16F10 melanoma tumor; versus vehicle control Group F): 4 days; ka (IL-15Rα; [6]): 7.5e+06 M⁻¹ s⁻¹; kd (IL-15Rα; [6]): 0.00028 s⁻¹; Kd (IL-15Rα; read-out: affinity (Kd)): 0.0038 nM; average pSTAT5 EC50 ([3]; at 5 minutes, average over two runs): 0.2071 ng/mL; pSTAT5 EC50 ([3]; at 10 minutes): 0.08187 ng/mL; EC50 (ng/mL) Ave ± SD [4]: 0.063 ± 0.028 ng/mL
4 | 0.00047 s⁻¹ | 130000 M⁻¹ s⁻¹ | 3.56 nM | Fraction containing mono-PEG-rIL-15 from Example 5 ([mPEG2-ru-40K]-[rIL-15] conjugates) (from UniProt P40933 49-162) (ligand) | 
5 |  |  | 0.043 nM | Fraction containing mono-PEG-rIL-15 from Example 2 ([mPEG2-ru-20K]-[rIL-15] conjugates) (from UniProt P40933 49-162) (ligand) | 
6 | 0.00049 s⁻¹ | 2.6e+06 M⁻¹ s⁻¹ | 0.183 nM | Fraction containing di- and tri-PEG-rIL-15 from Example 2 ([mPEG2-ru-20K]-[rIL-15] conjugates) (from UniProt P40933 49-162) (ligand) | 
7 |  |  | 0.0038 nM | recombinant IL-15 (unconjugated) (from UniProt P40933 49-162) (ligand) | 
